# Experimental data from patent publication US9260500B2, “Peptide and use thereof” (Takeda Pharmaceutical Company Limited, priority 2009, dated 2016).
# Starred links: 1 amine or outer side, 2 acyl side, 3 side chain; linkers in the order of their positions; H or OH if unused. Non-standard residues stand in square brackets, D forms with d. Ala(piperidin-4-yl) = O=C([C@H](CC1CCN([*:3])CC1)N[*:1])[*:2]; Phe(2,6-Me2) = Cc1cccc(C)c1C[C@H](N)C(=O)O; 2Nal = N[C@@H](Cc1ccc2ccccc2c1)C(=O)O; Arg(Me) = CNC(=N)NCCC[C@H](N)C(=O)O; hArg = N=C(N)NCCCC[C@H](N)C(=O)O; 4Pal = N[C@@H](Cc1ccncc1)C(=O)O; dHyp = O=C(O)[C@H]1C[C@H](O)CN1; Cha = N[C@@H](CC1CCCCC1)C(=O)O; dIva = CC[C@@](C)(N)C(=O)O; Iva = CC[C@](C)(N)C(=O)O; Nle = CCCC[C@H](N)C(=O)O; Aib = CC(C)(N)C(=O)O
# How the values were obtained:
# [1] = molecular target: T1, human Y2 receptor (Homo sapiens, UniProt P49146); test: Receptor Binding Assay (RBA) for Human Y2, [125I]-PYY displacement on hY2R/CHO membrane fraction; details: IC50 of test compound/IC50 of PYY(3-36) (PYY(3-36) taken as 1)
# T1 construct: expressed in transfected cells; membrane fraction
# T1 sequence (P49146 1-381): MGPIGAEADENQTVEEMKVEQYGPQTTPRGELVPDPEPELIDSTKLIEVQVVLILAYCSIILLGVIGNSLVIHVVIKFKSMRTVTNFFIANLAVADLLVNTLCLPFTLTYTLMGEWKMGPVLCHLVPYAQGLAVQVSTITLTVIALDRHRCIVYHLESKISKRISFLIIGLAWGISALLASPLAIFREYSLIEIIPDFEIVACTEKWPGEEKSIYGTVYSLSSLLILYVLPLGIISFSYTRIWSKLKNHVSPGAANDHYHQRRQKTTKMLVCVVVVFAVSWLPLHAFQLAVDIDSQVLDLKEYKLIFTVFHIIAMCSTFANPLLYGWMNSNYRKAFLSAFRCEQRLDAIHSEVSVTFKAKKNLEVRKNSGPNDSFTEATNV
# Summary of the method: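 Read-out is [125I]-PYY displacement from membranes of CHO/dhfr− cells stably transfected with human Y2R. Membranes were obtained by disrupting cells in a buffer of 10 mM NaHCO3, 5 mM EDTA and protease inhibitors.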
# [2] = molecular target: T1, human Y2 receptor; test: Human Y2 Receptor G Protein Binding Assay (GBA), [35S]GTPγS; type: biochemical; details: EC50 of test compound/EC50 of PYY(3-36) (PYY3-36 taken as 1), hY2R/CHO membrane fraction
# Summary of the method: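 Agonism measured as [35S]GTPγS binding, read by GF/C filtration and scintillation counting after 120 min at room temperature, using human Y2 membranes at 1 μg protein/mL in pH 7.4 Tris/MgCl2/NaCl/GDP buffer. Compound serially diluted 100 μM–1 nM; EC50 normalized to PYY(3-36) (ratio = compound/PYY).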
# [3] = system: male C57EL/6J mice; test: 3-Days Continuous Subcutaneous Administration Test-1 (food intake suppressing activity); type: in vivo, mouse; details: 0.03 mg/kg/day, subcutaneous Alzet pump, food consumption over 3 days; relative to food intake suppression rate for PYY(3-36) (1 mg/kg/day) taken as 100%
# Summary of the method: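 Male […] mice, 12-13 weeks, received compound at 0.03 mg/kg/day by subcutaneous osmotic pump (50% DMSO vehicle), housed singly with free food access. Food consumed over 3 days measured; suppression expressed relative to PYY(3-36) (1 mg/kg/day) set as 100%.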
Substance,RBA IC50 Ratio [1],GBA EC50 Ratio [2],food intake suppression rate (%) [3] [%]
"Ac-[D-Pro24, Iva25, Pya(4)26, Cha27,36, Aib28,31, Har30]-PYY(23-36) (Ac-S[dP][Iva][4Pal][Cha][Aib]N[hArg][Aib]TRQR[Cha]-NH2; SMILES CC[C@](C)(NC(=O)[C@H]1CCCN1C(=O)[C@H](CO)NC(C)=O)C(=O)N[C@@H](Cc1ccncc1)C(=O)N[C@@H](CC1CCCCC1)C(=O)NC(C)(C)C(=O)N[C@@H](CC(N)=O)C(=O)N[C@@H](CCCCNC(=N)N)C(=O)NC(C)(C)C(=O)N[C@H](C(=O)N[C@@H](CCCNC(=N)N)C(=O)N[C@@H](CCC(N)=O)C(=O)N[C@@H](CCCNC(=N)N)C(=O)N[C@@H](CC1CCCCC1)C(N)=O)[C@@H](C)O) [compound No. 317]",0.65,1.0,49
"Ac-[D-Pro24, Iva25, Pya(4)26, Cha27,36, Aib28,31, Lys30]-PYY(23-36) (Ac-S[dP][Iva][4Pal][Cha][Aib]NK[Aib]TRQR[Cha]-NH2; SMILES CC[C@](C)(NC(=O)[C@H]1CCCN1C(=O)[C@H](CO)NC(C)=O)C(=O)N[C@@H](Cc1ccncc1)C(=O)N[C@@H](CC1CCCCC1)C(=O)NC(C)(C)C(=O)N[C@@H](CC(N)=O)C(=O)N[C@@H](CCCCN)C(=O)NC(C)(C)C(=O)N[C@H](C(=O)N[C@@H](CCCNC(=N)N)C(=O)N[C@@H](CCC(N)=O)C(=O)N[C@@H](CCCNC(=N)N)C(=O)N[C@@H](CC1CCCCC1)C(N)=O)[C@@H](C)O) [compound No. 237]",2.9,2.9,46
"Ac-[D-Pro24, Iva25, Pya(4)26, Cha27,36, Leu(Me)28, Lys30, Aib31]-PYY(23-36) [compound No. 295]",0.76,1.2,52
"Ac-[D-Pro24, Nle25, Pya(4)26, Cha27,36, Aib28,31, Lys30]-PYY(23-36) (Ac-S[dP][Nle][4Pal][Cha][Aib]NK[Aib]TRQR[Cha]-NH2; SMILES CCCC[C@H](NC(=O)[C@H]1CCCN1C(=O)[C@H](CO)NC(C)=O)C(=O)N[C@@H](Cc1ccncc1)C(=O)N[C@@H](CC1CCCCC1)C(=O)NC(C)(C)C(=O)N[C@@H](CC(N)=O)C(=O)N[C@@H](CCCCN)C(=O)NC(C)(C)C(=O)N[C@H](C(=O)N[C@@H](CCCNC(=N)N)C(=O)N[C@@H](CCC(N)=O)C(=O)N[C@@H](CCCNC(=N)N)C(=O)N[C@@H](CC1CCCCC1)C(N)=O)[C@@H](C)O) [compound No. 224]",3.0,2.4,30
"Ac-[D-Pro24, Pya(4)26, Cha27,36, Aib28,31, Ala(4-pip)30]-PYY(23-36) (Ac-S[dP]R[4Pal][Cha][Aib]N[Ala(piperidin-4-yl)][Aib]TRQR[Cha]-NH2; SMILES CC(=O)N[C@@H](CO)C(=O)N1CCC[C@@H]1C(=O)N[C@@H](CCCNC(=N)N)C(=O)N[C@@H](Cc1ccncc1)C(=O)N[C@@H](CC1CCCCC1)C(=O)NC(C)(C)C(=O)N[C@@H](CC(N)=O)C(=O)N[C@@H](CC1CCNCC1)C(=O)NC(C)(C)C(=O)N[C@H](C(=O)N[C@@H](CCCNC(=N)N)C(=O)N[C@@H](CCC(N)=O)C(=O)N[C@@H](CCCNC(=N)N)C(=O)N[C@@H](CC1CCCCC1)C(N)=O)[C@@H](C)O) [compound No. 313]",0.72,0.8,23
"Ac-[D-Pro24, Pya(4)26, Cha27,36, Aib28,31, Arg(Me)30]-PYY(23-36) (Ac-S[dP]R[4Pal][Cha][Aib]N[Arg(Me)][Aib]TRQR[Cha]-NH2) [compound No. 314]",1.1,1.2,21
"Ac-[D-Pro24, Pya(4)26, Cha27,36, Aib28,31, Lys30]-PYY(23-36) [compound No. 138]",1.8,1.3,38
"Ac-[D-Pro24, Pya(4)26, Cha27,36, Aib28, Lys30, D-Iva31]-PYY(23-36) (Ac-S[dP]R[4Pal][Cha][Aib]NK[dIva]TRQR[Cha]-NH2; SMILES CC[C@@](C)(NC(=O)[C@H](CCCCN)NC(=O)[C@H](CC(N)=O)NC(=O)C(C)(C)NC(=O)[C@H](CC1CCCCC1)NC(=O)[C@H](Cc1ccncc1)NC(=O)[C@H](CCCNC(=N)N)NC(=O)[C@H]1CCCN1C(=O)[C@H](CO)NC(C)=O)C(=O)N[C@H](C(=O)N[C@@H](CCCNC(=N)N)C(=O)N[C@@H](CCC(N)=O)C(=O)N[C@@H](CCCNC(=N)N)C(=O)N[C@@H](CC1CCCCC1)C(N)=O)[C@@H](C)O) [compound No. 232]",0.55,1.6,34
"Ac-[D-Pro24, Pya(4)26, Cha27,36, Iva28, Lys30, Aib31]-PYY(23-36) (Ac-S[dP]R[4Pal][Cha][Iva]NK[Aib]TRQR[Cha]-NH2; SMILES CC[C@](C)(NC(=O)[C@H](CC1CCCCC1)NC(=O)[C@H](Cc1ccncc1)NC(=O)[C@H](CCCNC(=N)N)NC(=O)[C@H]1CCCN1C(=O)[C@H](CO)NC(C)=O)C(=O)N[C@@H](CC(N)=O)C(=O)N[C@@H](CCCCN)C(=O)NC(C)(C)C(=O)N[C@H](C(=O)N[C@@H](CCCNC(=N)N)C(=O)N[C@@H](CCC(N)=O)C(=O)N[C@@H](CCCNC(=N)N)C(=O)N[C@@H](CC1CCCCC1)C(N)=O)[C@@H](C)O) [compound No. 233]",0.33,1.2,36
"Ac-[D-Pro24, Pya(4)26, Cha27,36, Iva28, Lys30, D-Iva31]-PYY(23-36) (Ac-S[dP]R[4Pal][Cha][Iva]NK[dIva]TRQR[Cha]-NH2; SMILES CC[C@@](C)(NC(=O)[C@H](CCCCN)NC(=O)[C@H](CC(N)=O)NC(=O)[C@](C)(CC)NC(=O)[C@H](CC1CCCCC1)NC(=O)[C@H](Cc1ccncc1)NC(=O)[C@H](CCCNC(=N)N)NC(=O)[C@H]1CCCN1C(=O)[C@H](CO)NC(C)=O)C(=O)N[C@H](C(=O)N[C@@H](CCCNC(=N)N)C(=O)N[C@@H](CCC(N)=O)C(=O)N[C@@H](CCCNC(=N)N)C(=O)N[C@@H](CC1CCCCC1)C(N)=O)[C@@H](C)O) [compound No. 249]",0.36,0.67,39
"Ac-[D-Pro24, Pya(4)26, Cha27, Aib28,31, Lys30, Phe(2,6-Me2)36]-PYY(23-36) (Ac-S[dP]R[4Pal][Cha][Aib]NK[Aib]TRQR[Phe(2,6-Me2)]-NH2; SMILES CC(=O)N[C@@H](CO)C(=O)N1CCC[C@@H]1C(=O)N[C@@H](CCCNC(=N)N)C(=O)N[C@@H](Cc1ccncc1)C(=O)N[C@@H](CC1CCCCC1)C(=O)NC(C)(C)C(=O)N[C@@H](CC(N)=O)C(=O)N[C@@H](CCCCN)C(=O)NC(C)(C)C(=O)N[C@H](C(=O)N[C@@H](CCCNC(=N)N)C(=O)N[C@@H](CCC(N)=O)C(=O)N[C@@H](CCCNC(=N)N)C(=O)N[C@@H](Cc1c(C)cccc1C)C(N)=O)[C@@H](C)O) [compound No. 329]",0.52,0.59,51
"Ac-[D-Pro24, Pya(4)26, Nal(2)27, Aib28,31, Lys30, Cha36]-PYY(23-36) (Ac-S[dP]R[4Pal][2Nal][Aib]NK[Aib]TRQR[Cha]-NH2; SMILES CC(=O)N[C@@H](CO)C(=O)N1CCC[C@@H]1C(=O)N[C@@H](CCCNC(=N)N)C(=O)N[C@@H](Cc1ccncc1)C(=O)N[C@@H](Cc1ccc2ccccc2c1)C(=O)NC(C)(C)C(=O)N[C@@H](CC(N)=O)C(=O)N[C@@H](CCCCN)C(=O)NC(C)(C)C(=O)N[C@H](C(=O)N[C@@H](CCCNC(=N)N)C(=O)N[C@@H](CCC(N)=O)C(=O)N[C@@H](CCCNC(=N)N)C(=O)N[C@@H](CC1CCCCC1)C(N)=O)[C@@H](C)O) [compound No. 307]",7.2,4.0,22
"Ac-[Glu23, D-Hyp24, Cha27,28,36, Lys30, Aib31]-PYY(23-36) (Ac-E[dHyp]RH[Cha][Cha]NK[Aib]TRQR[Cha]-NH2; SMILES CC(=O)N[C@@H](CCC(=O)O)C(=O)N1C[C@@H](O)C[C@@H]1C(=O)N[C@@H](CCCNC(=N)N)C(=O)N[C@@H](Cc1c[nH]cn1)C(=O)N[C@@H](CC1CCCCC1)C(=O)N[C@@H](CC1CCCCC1)C(=O)N[C@@H](CC(N)=O)C(=O)N[C@@H](CCCCN)C(=O)NC(C)(C)C(=O)N[C@H](C(=O)N[C@@H](CCCNC(=N)N)C(=O)N[C@@H](CCC(N)=O)C(=O)N[C@@H](CCCNC(=N)N)C(=O)N[C@@H](CC1CCCCC1)C(N)=O)[C@@H](C)O) [compound No. 204]",0.8,1.3,16
